Test results: paper PMC5156837

Target: GST-TOC34 fusion protein (Arabidopsis thaliana) (UniProt Q38906)
Sequence of UniProt Q38906 (Q38906 whole entry, the tested form may be a part): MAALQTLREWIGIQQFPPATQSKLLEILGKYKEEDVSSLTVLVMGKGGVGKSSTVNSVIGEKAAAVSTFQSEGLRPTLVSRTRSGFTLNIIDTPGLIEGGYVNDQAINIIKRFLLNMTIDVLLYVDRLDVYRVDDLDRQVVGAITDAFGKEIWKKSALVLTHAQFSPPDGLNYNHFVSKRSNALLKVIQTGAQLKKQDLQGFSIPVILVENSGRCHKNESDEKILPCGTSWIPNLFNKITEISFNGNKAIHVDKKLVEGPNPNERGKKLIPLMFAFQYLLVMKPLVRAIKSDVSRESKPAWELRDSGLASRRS

GTPase activity of TOC34 (free phosphate from GTP, 27°C, 30 min) with CBL10 and 5 mM CaCl2: 0.5 fold
Substance: CBL10-cMyc (thrombin-cleaved from GST-CBL10-cMyc) (from UniProt Q7FRS8 1-256)
